# From the nanobody polyreactivity screen of Harvey et al. (2022)
# Experiment: yeast display, Sf9 membrane polyspecificity reagent, FACS + sequencing; frameworks hold sequencing errors
# Outline: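 Synthetic nanobody libraries on Saccharomyces cerevisiae BJ5465 were galactose-induced for 36–48 hours, stained 1 hour at 4 °C with 10% biotinylated, detergent-solubilized Sf9 membrane reagent and enriched on streptavidin microbeads. FACS then separated cells into low and high (top ~1%) gates by anti-HA (expression) and streptavidin (reagent binding) fluorescence. Genes were colony-PCR amplified, MiSeq 2 × 250 sequenced and CDR-length filtered. A clone's polyreactivity label is that of its gate of origin.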
row,Sequence,polyreactivity (PSR sort gate)
1,QVQLVESGGGLVQAGGSLRLSCAASGRIFSAYAMGWYRQAPGKERELVAAISRSRGRTYYADSVKGRVTISRDNAKNTVYLQMNSLKPEDTAVYYCAAARFAIVRGDYWGQGTQVTVSS,high polyreactivity
2,QVQLVESGGGLVQAGGSLRLSCAASGRIFSAYAMGWYRQAPGKERELVAANSRSGGRTYYADSVKGRFTISRDNAKNTVYLQMNSLKPDDTAVYYCAVLWHGRRPLYKLRTGPEYDYWGQGTQVTVSS,high polyreactivity
3,QVQLVESGGGLVQAGGSLRLSCAASGRIFSDYAMGWYRQAPGKERELVATITSGDSTNYEDSVKGRFTISRDNAKNTVYLQMNSLKPVDTAVYYCIADRYADYDYWGQGTQVTVSS,low polyreactivity
4,QVQLVESGGGLVQAGGSLRLSCAASGRIFSFNAMGRYRQAPGKERELVAAITWRGGSTYYADSVKGRFTISRDNAKNTVYLQMNSLKPEDTAVYYCNAYPFWRDYDYWGQGTQVTVSS,high polyreactivity
5,QVQLVESGGGLVQAGGSLRLSCAASGRIFSFNAMGWYRQAPGKERELVATIRTDGTTNYADSVKGRFTISRDNAKNTVYLQMNSLKPEDTAVYYCAANRKRFAFGYWGQGTQVTVSS,high polyreactivity
6,QVQLVESGGGLVQAGGSLRLSCAASGRIFSFYTMGWYRQAPGKERELVAAISGSGGSTYYADSVKGRFTISRDNANNTFYLQMNSLKPEDTAVYYCAAGYGFRYYLYDYWGQGTQVTVSS,high polyreactivity
7,QVQLVESGGGLVQAGGSLRLSCAASGRIFSFYVMGWYRQAPGKERELVAAISLSGGSTYYADSVKGRFTISRDNAMNTVYLQMNSLKPEDTAVYYCNAVLYARQRDRWARYDYWGQGTQVTVSS,high polyreactivity
8,QVQLVESGGGLVQAGGSLRLSCAASGRIFSGYAMGWYRQAPGKERELVAAISGGGSTNYADSVKGRFTISRDNAKNTVYLQMNSLKPEDTAVYYCATQYGHYPYWLYKYDYWGQGTQVTVSS,low polyreactivity
9,QVQLVESGGGLVQAGGSLRLSCAASGRIFSGYAMGWYRQAPGKERELVAAITSRSGSTYYADSVKGRFTISRDNAKNTVYLQMNSLKPEDTAVYYCAAEYVRFYWYTSAYWGQGTQVTVSS,low polyreactivity
10,QVQLVESGGGLVQAGGSLRLSCAASGRIFSGYVMGWYRQPPGKERELVAAISRSGGSTYYADSVKGRFTISRDNAKNTVYLQMNSLKPEDTAVYYCNADWYKRHYDYWGQGTQVTVSS,high polyreactivity
11,QVQLVESGGGLVQAGGSLRLSCAASGRIFSHNVMGWYRQAPGKERELVAAISWSSGSTYYADSVKGRFTISRDNAKNTVYLQMNSLKPEDTAVYYCNAATRPTGDYWGQGTQVTVSS,low polyreactivity
12,QVQLVESGGGLVQAGGSLRLSCAASGRIFSHYAMGWYRQAPGKERELVAAINRSGGSTYYADSVKGRFTISRDNAKNTVYLQMNSLKPEDTAVYYCAADVKYGYDWGQGTQVTVSS,high polyreactivity
13,QVQLVESGGGLVQAGGSLRLSCAASGRIFSINAMGWYRQAPGKERELVASISSGGSTKYADSVKGRFTISRDNAKNTVYLQMNSLKPEDTAVYYCAARGRVYRYGYWGQGTQVTVSS,high polyreactivity
14,QVQLVESGGGLVQAGGSLRLSCAASGRIFSIYAMGSYRQAPGKERELVAAISFRGTSTYADSVKGRFTISRDNAKNTVYLQMNSLKPEDTAVYYCAVTGFDFLWPSLGGELDYWGQGTQVTVSS,low polyreactivity
15,QVQLVESGGGLVQAGGSLRLSCAASGRIFSIYGMGWSRQAPGKEREFVASITYSGGSTYYADSVKGRFTISRDNAKNTVYLQMNSLQPEDTAVYYCAKYVFSAYDYWGQGTLVTVSS,low polyreactivity
16,QVQLVESGGGLVQAGGSLRLSCAASGRIFSKKAMGWYRQAPGKERELVARIRWTGGITYYADSVKGRFTISRDNAKNTVYLQMNSLKPEDTAVYYCAADYLWGTWTTYFRPLLYDYWGQGTQVTVSS,low polyreactivity

row,Sequence,polyreactivity (PSR sort gate)
1,QVQLVESGGGLVQAGGSLRLSCAASGRIFSKNAMGCYRQQPGKERELVAAISRSGGGTYYADSVKGRFTISRDTAKNTVYLQMNSLKPEDTAVYYCATRYGSWGQGTQVTVSS,high polyreactivity
2,QVQLVESGGGLVQAGGSLRLSCAASGRIFSKNVRGWYRQAPGKERELVADISNTGRTYYADSVKGRFKISRDNAKNTVYLQMNSLKPEDTAVYYCAADIAYRYFAVEFSSYTGDYWGQGTQVTVSS,low polyreactivity
3,QVQLVESGGGLVQAGGSLRLSCAASGRIFSKYAMGWYRQAPGKERELVASIRWRGDRTYYADSVKGRFTISRDNAKNTVDLQMNSLIPEDTAVYYCAADEPGYGVGYWTYPVVPYDYWGQGTQVTVSS,low polyreactivity
4,QVQLVESGGGLVQAGGSLRLSCAASGRIFSLNAMGWYRQAPGNERELVAGNRKRGGSTYYADSVKGRFTISRDNAKNTLYLQMNSLKPEDTAVYYCAAQPALTYRFYYWGQGTQVTVSS,high polyreactivity
5,QVQLVESGGGLVQAGGSLRLSCAASGRIFSLYAMGWYRQAPGKERELVAAISRGGSTYYADSVKGRFTISRDNAKNTVYLQMNSLKPEDTAVYYCAAAPDYRAEYDYWGQGTQVTVSS,low polyreactivity
6,QVQLVESGGGLVQAGGSLRLSCAASGRIFSNNAIGWYRQAPGKARELVAAHSWNGGRTYYADSVKGRFTISRDNGKNTVYLQMNSLQPEDPAVYYCTKHDAQTRSFASTWYVYWGQGTQVTVSS,high polyreactivity
7,QVQLVESGGGLVQAGGSLRLSCAASGRIFSNNAMGWYRQAPGKERELVAAITNSGGSTYYADSVKGRFTISRDNAKNTVYLQMNSLKPEDTAVYYCAADHLSVPYDVYWTYSYWGQGTQVTVSS,low polyreactivity
8,QVQLVESGGGLVQAGGSLRLSCAASGRIFSNNAMGWYRQAPGKERELVASIDSGDSTTYADSVKGRFTISRDNAKNTVYLQMNSLKPEDTAVYYCNAGPAEADYDYWGQGTQVTVSS,high polyreactivity
9,QVQLVESGGGLVQAGGSLRLSCAASGRIFSNYAMGWYRQAPGKERELVAAITRSGGSTYYADSVKGRFTISRDNAKNTVYLQMNSLKPEDTAVYYCNTAYRRRYTYDYWGQGTQVTVSS,high polyreactivity
10,QVQLVESGGGLVQAGGSLRLSCAASGRIFSPNAMGWYRQAPGKERELVAVSSWRGVSTYFADSVKGRFTISRDNAKNTVYLQMNSLKPEDTAVYYCAVDNKSVYYWRQYYYWGQGTQVTVSS,high polyreactivity
11,QVQLVESGGGLVQAGGSLRLSCAASGRIFSPYAMGWYRQAPGKERELVAAISYDDGITYYADSVKGRFTISRDNAKNTVYLQMNCLKPEDTAVYYCAADSVTRPAGDYWGQGTQVTVSS,low polyreactivity
12,QVQLVESGGGLVQAGGSLRLSCAASGRIFSPYAMGWYRQAPGKERELVAAITWSGTSTSYADSVKGRFTISRDNAKNTVYLQMNRLKPEDTAVYYCNAVYRSWDRYTFYWYVSNDYWGQGTQVTVSS,low polyreactivity
13,QVQLVESGGGLVQAGGSLRLSCAASGRIFSPYAMGWYRQAPGKERELVASIRGSGGSTYYADSVKGPFTISRDNAKNTVYLQMNRLKPEDTAVYYCNARNNYRFLSFGYWGQGTQVTVSS,high polyreactivity
14,QVQLVESGGGLVQAGGSLRLSCAASGRIFSQNAMGWYRQAPGKERELVAAISGGSTNYADSVKGRFTISRDNAKNTVYLQMNSLKPEDTAVYYCAVRWYFYHRSVEYDYWGQGTQVTVSS,low polyreactivity
15,QVQLVESGGGLVQAGGSLRLSCAASGRIFSQYAMGWYRQAPGKARELVAAITKSGGSTYYADSVKGRFTISRDKAKNTVYLQMNSRKPEETAVYYCAKLRSSRDYDYWGQGTQVTVSS,high polyreactivity
16,QVQLVESGGGLVQAGGSLRLSCAASGRIFSQYAMGWYRQAPGKERELVAAISYDDGITYYADSVKGRFTISRDNAKNTVYLQMNSLKPEDTAVYYCNADGSRRYNYWGQGTQVTVSS,low polyreactivity
